Test [1] addresses T1, mouse Tie2-his (Sino Biological, 51087-M08H) (mouse, UniProt Q02858 23-743).
T1 construct: Bought protein; also called mTIE2-his; mTie2-his; not shown: his tag
Briefly: ELISA, purified IgG on coated mTIE2-his (1 µg/mL), HRP anti-human detection. How it is done: (§1) Whether or not the binding of TIE2 to the ScFv phage clone was maintained in IgG was determined through ELISA. 1 μg/ml of Ag (hTIE2-his: Sino Biological, 10700-H08H; mTIE2-his: Sino Biological, 51087-M08H) was plated at 100 μl/well onto a 96-well plate and incubated at 4° C. overnight. The next day, the cells grown the day before were centrifuged at 3,000 rpm for 10 minutes and stored at 4° C. The plated Ag was washed 3 times with 0.1% TBST and 200 μl of 2% BSA blocking buffer was added thereto, followed by incubation at 25° C. for 2 hours. After blocking was completed, the resulting product was washed 3 times with 0.1% TBST. […] After phage binding, the resulting product was washed 3 times with 0.1% TBST and 100 μl of HRP-conjugated goat anti-human Ab (1:3000, Sino, 11973-MM05) was added thereto, followed by incubation at 25° C. for 1 hour. After reaction, the resulting product was washed 3 times with 0.1% TBST, 100 μl of TMB (BD TMB substrate reagent set * 555214) was added thereto, color was developed for 3 to 5 minutes, 50 μl of a stop solution was added thereto, and then an assay was performed using an ELISA reader.

Test [2] has as its target T2, human TIE2-his (Sino Biological, 10700-H08H) (human, UniProt Q02763 23-745).
T2 construct: Bought protein; also called hTIE2-his; hTIE2; not shown: his tag
Briefly: ELISA, purified IgG on coated hTIE2-his (1 µg/mL), HRP anti-human detection. As for the experimental part:
as §1
On the technique in general: In an ELISA, binding on a coated surface is turned into a signal by an enzyme label.

Test [3] addresses T3, human TIE2 overexpressed on CHO-K1 cells (human, UniProt Q02763 23-1124).
T3 construct: whole, on cells; also called hTIE2/CHO-K1; hTIE2 CHO-K1
Description: flow cytometry on hTIE2/CHO-K1 cells, 2 µg/mL clone, PE anti-human IgG-Fc secondary. How it is done: (§2) In order to determine the binding to cell-expressing TIE2, the binding to the self-established human/mouse TIE2 overexpressing CHO-K1 cell lines (hTIE2/CHO-K1, mTIE2/CHO-K1) was measured using flow cytometry. Each cell line was maintained and cultured, hTIE2 CHO-K1 was washed with PBS, 5 mM EDTA was added thereto to obtain a cell suspension, and each cell was recovered through centrifugation. A cell suspension of 5×10⁶ cells/mL was prepared using FACS-dedicated buffer (PBS containing 2% FBS, 0.05% sodium azide), and 100 μL of the cell suspension was dispensed into each tube. 100 μL of 2 μg/mL clones was added to each test tube and allowed to stand at 4° C. for 30 minutes to induce cell binding. The cells were washed with 2 mL of FACS buffer, 100 μL of a secondary antibody dilution (1/500, PE-conjugated anti-human IgG-Fc polyclonal antibody fragment, *A80-248PE, Bethyl Laboratories Inc. US) was added thereto, and the resulting mixture was allowed to stand at 4° C. for 20 minutes to perform fluorescent labeling. The cells were washed with 2 mL of FACS buffer and then suspended in 200 μL of FACS buffer. […]
On the technique in general: In flow cytometry, cells or beads pass a laser one at a time.

In test [4] the target is T4, mouse TIE2 overexpressed on CHO-K1 cells (mouse, UniProt Q02858 23-1122).
T4 construct: whole, on cells; also called mTIE2/CHO-K1
Briefly: flow cytometry on mTIE2/CHO-K1 cells, PE anti-human IgG-Fc secondary. How it is done:
as §2

Test [5] has as its target T2, human TIE2-his (Sino Biological, …). Description: Octet (BLI), antibody fixed on the biosensor, hTIE2-his in solution. As for the experimental part: (§3) The anti-TIE2 antibody was fixed at the biosensor and tested according to the manufacturer's manual. The binding kinetics at each concentration of human TIE2 and mouse Tie2 were measured to calculate the binding rate constant (kₒₙ), dissociation rate constant (koff), and binding constant (KD) (Table 4).
(In general: BLI is a label-free optical method that tracks binding on a fibre tip over time.)

In test [6] the target is T1, mouse Tie2-his (Sino Biological, …). Briefly: ELISA, scFv phage on mouse TIE2 antigen, HRP anti-M13 detection.
The target of test [7] is T2, human TIE2-his (Sino Biological, …). Briefly: ELISA, scFv phage on coated hTIE2-his, HRP anti-M13 detection.
In test [8] the target is T1, mouse Tie2-his (Sino Biological, …). Briefly: Octet (BLI), antibody fixed on the biosensor, mTie2-His in solution. As for the experimental part:
as §3

A value given as a limit tells only on which side of the number the result lay.

T2 sequence (Q02763 23-745 limits assumed): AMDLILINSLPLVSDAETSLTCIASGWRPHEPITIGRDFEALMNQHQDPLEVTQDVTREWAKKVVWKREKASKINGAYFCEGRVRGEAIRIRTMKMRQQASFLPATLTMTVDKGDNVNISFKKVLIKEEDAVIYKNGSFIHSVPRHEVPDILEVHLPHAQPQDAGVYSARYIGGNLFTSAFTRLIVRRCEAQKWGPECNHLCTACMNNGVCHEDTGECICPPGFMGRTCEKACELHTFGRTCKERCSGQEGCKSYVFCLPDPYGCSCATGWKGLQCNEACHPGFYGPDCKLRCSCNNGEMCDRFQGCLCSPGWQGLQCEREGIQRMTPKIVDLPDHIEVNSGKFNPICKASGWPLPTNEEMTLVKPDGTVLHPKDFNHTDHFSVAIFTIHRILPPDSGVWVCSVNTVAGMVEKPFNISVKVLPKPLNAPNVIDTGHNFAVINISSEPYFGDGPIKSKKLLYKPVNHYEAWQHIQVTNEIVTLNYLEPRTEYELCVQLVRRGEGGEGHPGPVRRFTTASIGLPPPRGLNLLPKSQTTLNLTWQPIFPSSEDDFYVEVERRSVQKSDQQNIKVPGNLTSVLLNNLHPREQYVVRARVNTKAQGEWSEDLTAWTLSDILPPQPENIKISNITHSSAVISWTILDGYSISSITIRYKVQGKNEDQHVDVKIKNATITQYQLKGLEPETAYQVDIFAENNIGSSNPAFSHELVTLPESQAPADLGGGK
T1 sequence (Q02858 23-743 limits assumed, stated change not applied): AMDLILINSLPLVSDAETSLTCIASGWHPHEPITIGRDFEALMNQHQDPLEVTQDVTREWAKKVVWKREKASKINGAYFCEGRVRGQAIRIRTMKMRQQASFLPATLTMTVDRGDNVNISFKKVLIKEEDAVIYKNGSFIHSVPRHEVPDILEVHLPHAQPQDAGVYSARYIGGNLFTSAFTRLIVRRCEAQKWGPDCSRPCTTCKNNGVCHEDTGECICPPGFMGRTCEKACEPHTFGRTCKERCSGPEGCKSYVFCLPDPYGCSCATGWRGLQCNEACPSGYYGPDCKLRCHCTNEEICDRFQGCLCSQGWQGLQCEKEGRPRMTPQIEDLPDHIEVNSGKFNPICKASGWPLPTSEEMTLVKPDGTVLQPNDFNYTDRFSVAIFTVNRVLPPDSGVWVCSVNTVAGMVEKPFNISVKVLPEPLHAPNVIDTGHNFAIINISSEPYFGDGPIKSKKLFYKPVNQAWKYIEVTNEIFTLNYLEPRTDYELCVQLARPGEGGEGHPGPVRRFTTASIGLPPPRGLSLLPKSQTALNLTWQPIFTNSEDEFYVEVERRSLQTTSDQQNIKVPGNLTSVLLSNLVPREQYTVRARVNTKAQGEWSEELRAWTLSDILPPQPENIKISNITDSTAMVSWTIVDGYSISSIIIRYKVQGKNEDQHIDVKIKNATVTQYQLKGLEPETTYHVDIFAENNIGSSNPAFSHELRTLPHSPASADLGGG
T4 sequence (Q02858 23-1122): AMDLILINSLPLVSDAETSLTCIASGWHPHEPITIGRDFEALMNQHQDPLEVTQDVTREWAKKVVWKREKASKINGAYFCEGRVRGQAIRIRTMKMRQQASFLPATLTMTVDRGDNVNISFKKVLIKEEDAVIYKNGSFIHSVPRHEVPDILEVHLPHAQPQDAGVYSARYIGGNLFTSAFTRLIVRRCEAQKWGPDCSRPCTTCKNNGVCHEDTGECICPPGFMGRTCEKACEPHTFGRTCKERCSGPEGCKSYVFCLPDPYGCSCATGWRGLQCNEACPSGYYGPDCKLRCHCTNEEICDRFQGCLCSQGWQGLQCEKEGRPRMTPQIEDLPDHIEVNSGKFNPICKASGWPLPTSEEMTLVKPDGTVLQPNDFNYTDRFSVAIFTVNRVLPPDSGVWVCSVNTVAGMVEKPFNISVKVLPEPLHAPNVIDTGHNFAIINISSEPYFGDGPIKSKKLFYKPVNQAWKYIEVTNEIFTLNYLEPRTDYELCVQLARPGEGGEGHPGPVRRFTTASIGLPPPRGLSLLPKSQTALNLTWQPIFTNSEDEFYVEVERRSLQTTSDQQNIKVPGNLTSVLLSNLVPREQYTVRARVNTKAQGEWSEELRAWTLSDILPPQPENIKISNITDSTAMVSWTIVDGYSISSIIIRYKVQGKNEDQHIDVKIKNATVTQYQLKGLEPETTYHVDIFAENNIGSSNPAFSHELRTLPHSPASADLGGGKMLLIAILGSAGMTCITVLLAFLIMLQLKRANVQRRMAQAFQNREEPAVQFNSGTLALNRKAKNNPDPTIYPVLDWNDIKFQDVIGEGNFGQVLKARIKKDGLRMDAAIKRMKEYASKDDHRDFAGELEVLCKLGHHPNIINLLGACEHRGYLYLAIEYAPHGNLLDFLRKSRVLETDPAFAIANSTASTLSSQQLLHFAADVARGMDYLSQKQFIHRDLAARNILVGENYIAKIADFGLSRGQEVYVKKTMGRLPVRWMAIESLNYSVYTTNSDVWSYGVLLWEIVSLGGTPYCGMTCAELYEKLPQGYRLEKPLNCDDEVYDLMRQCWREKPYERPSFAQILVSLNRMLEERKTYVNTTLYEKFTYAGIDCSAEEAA
T3 sequence (Q02763 23-1124): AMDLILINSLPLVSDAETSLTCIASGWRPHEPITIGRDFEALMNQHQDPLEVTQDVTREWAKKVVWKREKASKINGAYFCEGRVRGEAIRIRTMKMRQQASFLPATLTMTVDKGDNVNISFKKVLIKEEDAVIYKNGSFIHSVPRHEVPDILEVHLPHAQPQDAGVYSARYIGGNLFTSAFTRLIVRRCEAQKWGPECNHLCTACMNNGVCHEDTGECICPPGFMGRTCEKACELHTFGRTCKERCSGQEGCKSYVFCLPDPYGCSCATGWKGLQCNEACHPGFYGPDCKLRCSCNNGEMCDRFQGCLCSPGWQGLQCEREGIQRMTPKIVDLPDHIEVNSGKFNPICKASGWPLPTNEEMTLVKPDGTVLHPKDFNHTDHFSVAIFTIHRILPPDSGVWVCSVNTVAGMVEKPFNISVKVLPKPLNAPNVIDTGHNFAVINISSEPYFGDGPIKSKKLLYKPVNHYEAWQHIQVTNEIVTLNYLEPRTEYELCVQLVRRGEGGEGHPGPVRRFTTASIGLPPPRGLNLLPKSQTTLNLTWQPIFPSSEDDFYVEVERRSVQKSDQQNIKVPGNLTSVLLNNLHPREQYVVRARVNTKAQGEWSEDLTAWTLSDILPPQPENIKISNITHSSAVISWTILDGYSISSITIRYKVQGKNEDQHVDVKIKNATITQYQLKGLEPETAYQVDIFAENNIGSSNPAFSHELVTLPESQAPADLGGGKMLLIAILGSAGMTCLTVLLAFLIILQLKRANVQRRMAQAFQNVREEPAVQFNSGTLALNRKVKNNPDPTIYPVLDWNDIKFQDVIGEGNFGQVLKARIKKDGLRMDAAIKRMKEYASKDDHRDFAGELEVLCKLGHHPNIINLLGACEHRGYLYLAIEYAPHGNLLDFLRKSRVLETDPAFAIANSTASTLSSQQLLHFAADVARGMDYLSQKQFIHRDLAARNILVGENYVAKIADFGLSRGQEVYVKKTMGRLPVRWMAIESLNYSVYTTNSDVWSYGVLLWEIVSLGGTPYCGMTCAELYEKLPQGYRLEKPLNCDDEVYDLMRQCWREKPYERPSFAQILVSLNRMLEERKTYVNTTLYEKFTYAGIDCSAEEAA

B1: anti-TIE2 antibody 1A9 (IgG) (antibody, V domains shown)
VH: QMQLVQSEAEVKKPGASVKVSCKASGYTFNSYDIHWVRQAPGQGLEWMGVVNPPGGTGSTVYAQKFEDRLTLTTDMSTSTAYMELSSLRSEDTAVYYCARDYNRAPPTLDVWGQGTTITVSS
VL: NFMLTQPASVSGSPGQSITISCTGSSSDVGGYNYVSWYQQHPGKAPQLIIYDVTKRPSGVSNRFSGSKSGNSASLTISGLQAEDEADYYCSSYSSSTFYVFGTGTKVTVLG
notes: also called 1A9 clone
Consider B1, for which the binding result in test [1] is recorded as “no binding”; in test [2] it was “binds”; in test [3], “binds”.

B2: anti-TIE2 antibody 2F2 (IgG) (antibody, V domains shown)
VH: QVQLVESGGGLVQPGGSLRLSCAASGFTFSSYAMTWVRQAPGKGLEWVSRISGSGGSTNYADSVKGRFTISRDNSKNTLYLQMNSLRAEDTAVYYCARGGLHHGFDIWGQGTMVTVSS
VL: SYELTQPPSLSVAPGKTARITCDGDNIESKSVHWYQQKPGQAPVLVIYYDNDRPSGIPERFSGSNSGNTATLTISRVEAGDEADYYCQVWDTYTDQPVFGGGTKLTVLG
notes: also called 2F2 clone
Regarding B2, the binding result in test [1] was “no binding”. Besides, the binding result in test [4] is recorded as “no binding”. In test [5], the dissociation constant (Kd) (commonly the free concentration of one partner at which half of the binding sites on the other are occupied at equilibrium, for simple one-to-one binding) was found to be 0.794 nM; the koff (commonly the first-order rate constant of dissociation) came to 0.000116 s⁻¹; the kon (commonly the rate constant with which the complex forms) came to 146000 M⁻¹ s⁻¹.

B3: 3D6 monoclonal scFv phage (scFv)
chain: QVQLVESGGGLVQPGGSLRLSCIGSGFTFSRYNINWVRQAPGKGLEWVSSISSSGRFIHYAGSVKGRFTVSRDNTKNSVSLQMNSLRAEDTAVYYCARDSPTQGPYYYYGMDVWGQGTTITVSSSYELTQPPSESVAPGKTATITCGGNKIGSKSVHWYQQKPGQAPLMVIYYDSDRPSGIPERFSGSNSGNTATLTISRVEVGDEADYYCQVWDSSSDRPVFGGGTKLTVLG
Take B3: in test [6], the “Mouse ELISA” value is 0.1. In addition, the “Human ELISA” value in test [7] is 2.1.

B4: 4E2 monoclonal scFv phage (scFv)
chain: QVQLVQSGGGLIQPGGSLRLSCAASGFTFSDYAMHWVRQAPGKGLEWVALISFDGNNQYYADSVKGRFTISRDNSKNTIYLQMNSLRAEDTAVYYCTTDTMSGYDWEDAFDIWGQGTMITVSSDIQMTQSPSSLSASIGDRVTITCRASQSIGRWLAWYQQKPGKAPKLLIYAASSLQSGVPSRFSGSGSGTDFTLTISSLQPEDFATYYCQQSYSTPYTFGQGTKVEIKR
As for B4, the “Mouse ELISA” value in test [6] amounted to 0.4. Besides, the “Human ELISA” value in test [7] came to 1.2.

B5: anti-TIE2 antibody 3D6 (IgG) (antibody, V domains shown)
VH: QVQLVESGGGLVQPGGSLRLSCIGSGFTFSRYNINWVRQAPGKGLEWVSSISSSGRFIHYAGSVKGRFTVSRDNTKNSVSLQMNSLRAEDTAVYYCARDSPTQGPYYYYGMDVWGQGTTITVSS
VL: SYELTQPPSESVAPGKTATITCGGNKIGSKSVHWYQQKPGQAPLMVIYYDSDRPSGIPERFSGSNSGNTATLTISRVEVGDEADYYCQVWDSSSDRPVFGGGTKLTVLG
notes: also called 3D6 clone
B5: the binding result in test [1] was “no binding”; in test [4], “no binding”; in test [2] it was “binds”; in test [3], “binds”.

B6: 1A9 monoclonal scFv phage (scFv)
chain: QMQLVQSEAEVKKPGASVKVSCKASGYTFNSYDIHWVRQAPGQGLEWMGVVNPPGGTGSTVYAQKFEDRLTLTTDMSTSTAYMELSSLRSEDTAVYYCARDYNRAPPTLDVWGQGTTITVSSNFMLTQPASVSGSPGQSITISCTGSSSDVGGYNYVSWYQQHPGKAPQLIIYDVTKRPSGVSNRFSGSKSGNSASLTISGLQAEDEADYYCSSYSSSTFYVFGTGTKVTVLG
Consider B6, for which the “Mouse ELISA” value in test [6] stood at 0. The “Human ELISA” value in test [7] was determined as 2.4.

B7: anti-TIE2 antibody 11F (IgG) (antibody, V domains shown)
VH: QVQLVESGGGVVQPGRSLRLSCSASGFSFSDHAMHWVRQAPGRGLEWVATVWPDGSNKYYVDSVNGRFSISRDNSKNTVSLQMNSLRAEDTAVYYCARDSGPISRGDLTYWGPGVLVTVSS
VL: NFMLTQPHSVSESPGKTVIISCTGSGGSIASNYVQWYQQRPGSAPTIVIYEDDQRPSGVPDRYSGSTDSSSNSASLTISGLRAEDEADYYCQSYDDTNVVFGGGTKLTVLG
notes: also called 11F antibody; No. 6
In test [5], B7 returned a Kd of 2.76 nM, a koff of 0.000152 s⁻¹ and a kon of 55300 M⁻¹ s⁻¹.

B8: anti-TIE2 antibody 4E2 (IgG) (antibody, V domains shown)
VH: QVQLVQSGGGLIQPGGSLRLSCAASGFTFSDYAMHWVRQAPGKGLEWVALISFDGNNQYYADSVKGRFTISRDNSKNTIYLQMNSLRAEDTAVYYCTTDTMSGYDWEDAFDIWGQGTMITVSS
VL: DIQMTQSPSSLSASIGDRVTITCRASQSIGRWLAWYQQKPGKAPKLLIYAASSLQSGVPSRFSGSGSGTDFTLTISSLQPEDFATYYCQQSYSTPYTFGQGTKVEIKR
notes: also called 4E2 clone
B8: in test [8], binding was characterised by a dissociation constant (Kd) of 13.8 nM, the dissociation rate constant (koff) turned out to be 0.00291 s⁻¹ and the kon was 212000 M⁻¹ s⁻¹. Also, in test [5], the Kd is under 0.001 nM, the koff is under 1e-07 s⁻¹ and the on-rate constant (kon) stood at 106000 M⁻¹ s⁻¹.

B9: 2F2 monoclonal scFv phage (scFv)
chain: QVQLVESGGGLVQPGGSLRLSCAASGFTFSSYAMTWVRQAPGKGLEWVSRISGSGGSTNYADSVKGRFTISRDNSKNTLYLQMNSLRAEDTAVYYCARGGLHHGFDIWGQGTMVTVSSSYELTQPPSLSVAPGKTARITCDGDNIESKSVHWYQQKPGQAPVLVIYYDNDRPSGIPERFSGSNSGNTATLTISRVEAGDEADYYCQVWDTYTDQPVFGGGTKLTVLG
As to B9, in test [6], the “Mouse ELISA” value worked out at 0.1. The “Human ELISA” value in test [7] was found to be 1.9.

For the origin of these results see patent publication US20220213201A1 (PHARMABCINE, published 2022).
